Paper PMC9482650, “Quantitative fragmentomics allow affinity mapping of interactomes” (Nature Communications, 2022)

Assays:
Experiment in all cases: holdup assay
Parameters in all cases: key: below the threshold = too weak to quantify, mostly under pKd 3.1 to 4
Conditions in all cases: plain residues with an end cap or a label only (N-terminal biotin on a linker: ado-ado)
AHNAK1, Q09666 = target: AHNAK1, Q09666
APBA2_2, Q99767 = target: T1, APBA2_2, Q99767
T1 sequence (Q99767 654-744, limits assumed, looked up): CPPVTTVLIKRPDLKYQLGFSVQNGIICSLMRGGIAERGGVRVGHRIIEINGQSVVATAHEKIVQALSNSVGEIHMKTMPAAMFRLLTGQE

APBA3_1, O96018 = target: T2, APBA3_1, O96018
T2 sequence (O96018 389-490, limits assumed, looked up): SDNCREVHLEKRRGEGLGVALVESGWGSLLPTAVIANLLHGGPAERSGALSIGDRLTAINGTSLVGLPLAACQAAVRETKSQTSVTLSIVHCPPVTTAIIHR

ARHGEF12, Q9NZN5-2 = target: ARHGEF12, Q9NZN5-2
DLG1_1, Q12959 = target: DLG1_1, Q12959
DLG2_2, Q15700 = target: DLG2_2, Q15700
DLG4_2, P78352 = target: DLG4_2, P78352
DLG4_3, P78352 = target: DLG4_3, P78352
FRMPD3, Q5JV73 = target: FRMPD3, Q5JV73
GRIP1_4, Q9Y3R0 = target: T3, GRIP1_4, Q9Y3R0
T3 sequence (Q9Y3R0 467-571, limits assumed, looked up): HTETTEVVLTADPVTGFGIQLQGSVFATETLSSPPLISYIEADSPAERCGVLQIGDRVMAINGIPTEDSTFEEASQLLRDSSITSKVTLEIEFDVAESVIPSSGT

GRIP2_7, Q9C0E4 = target: GRIP2_7, Q9C0E4
HTRA1, Q92743 = target: HTRA1, Q92743
HTRA3, P83110 = target: T4, HTRA3, P83110
T4 sequence (P83110 354-453, limits assumed, looked up): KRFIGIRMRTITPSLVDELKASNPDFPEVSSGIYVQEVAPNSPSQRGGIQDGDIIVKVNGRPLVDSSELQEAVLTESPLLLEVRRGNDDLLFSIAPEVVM

IL16_1, Q14005 = target: IL16_1, Q14005
IL16_4, Q14005 = target: IL16_4, Q14005
Inadl_10, Q8NI35 = target: Inadl_10, Q8NI35
Inadl_5, Q8NI35 = target: Inadl_5, Q8NI35
LAP2, Q96RT1 = target: LAP2, Q96RT1
LDB3, O75112 = target: LDB3, O75112
LIN7B, Q9HAP6 = target: T5, LIN7B, Q9HAP6
T5 sequence (Q9HAP6 88-185, limits assumed, looked up): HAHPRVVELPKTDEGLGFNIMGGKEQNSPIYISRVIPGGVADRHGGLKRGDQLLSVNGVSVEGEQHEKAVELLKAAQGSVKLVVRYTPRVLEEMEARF

LIN7C, Q9NUP9 = target: T6, LIN7C, Q9NUP9
T6 sequence (Q9NUP9 88-185, limits assumed, looked up): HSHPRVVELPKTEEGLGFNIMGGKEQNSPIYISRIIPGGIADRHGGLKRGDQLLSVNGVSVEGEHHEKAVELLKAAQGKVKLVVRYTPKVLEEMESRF

LNX1_3, Q8TBB1 = target: LNX1_3, Q8TBB1
MAGI2_3, Q86UL8 = target: MAGI2_3, Q86UL8
MAGI2_4, Q86UL8 = target: MAGI2_4, Q86UL8
MPDZ_5, O75970 = target: T7, MPDZ_5, O75970
T7 sequence (O75970 695-796, limits assumed, looked up): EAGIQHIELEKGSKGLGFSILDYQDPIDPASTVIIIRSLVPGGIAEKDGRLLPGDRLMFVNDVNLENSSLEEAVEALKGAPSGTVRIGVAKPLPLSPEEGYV

NHERF3_3, Q5T2W1 = target: T8, NHERF3_3, Q5T2W1
T8 sequence (Q5T2W1 238-333, limits assumed, looked up): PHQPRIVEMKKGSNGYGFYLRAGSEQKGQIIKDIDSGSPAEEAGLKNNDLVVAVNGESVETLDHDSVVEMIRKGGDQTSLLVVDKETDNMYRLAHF

PDLIM1, O00151 = target: PDLIM1, O00151
PDZD7_3, Q9H5P4 = target: T9, PDZD7_3, Q9H5P4
T9 sequence (Q9H5P4 857-944, limits assumed, looked up): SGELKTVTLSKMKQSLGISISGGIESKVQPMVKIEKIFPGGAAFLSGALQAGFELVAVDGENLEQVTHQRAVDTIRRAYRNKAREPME

PDZRN4_1, Q6ZMN7 = target: PDZRN4_1, Q6ZMN7
Sequence of PDZRN4_1, Q6ZMN7 (Q6ZMN7 213-318): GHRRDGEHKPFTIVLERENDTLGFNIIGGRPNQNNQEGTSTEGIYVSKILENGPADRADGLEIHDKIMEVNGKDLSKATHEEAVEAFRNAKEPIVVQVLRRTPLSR

Sequence of PDLIM1, O00151 (O00151 1-87): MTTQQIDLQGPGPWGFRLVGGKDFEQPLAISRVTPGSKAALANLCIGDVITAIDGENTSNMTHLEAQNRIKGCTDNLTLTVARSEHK
Sequence of IL16_1, Q14005 (Q14005 210-306): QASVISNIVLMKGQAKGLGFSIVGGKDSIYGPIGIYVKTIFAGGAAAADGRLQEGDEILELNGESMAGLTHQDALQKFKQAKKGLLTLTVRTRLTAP
Sequence of IL16_4, Q14005 (Q14005 1229-1329): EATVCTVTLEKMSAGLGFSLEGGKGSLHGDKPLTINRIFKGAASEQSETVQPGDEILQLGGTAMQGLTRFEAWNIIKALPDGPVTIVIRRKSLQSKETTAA
Sequence of DLG2_2, Q15700 (Q15700 189-283): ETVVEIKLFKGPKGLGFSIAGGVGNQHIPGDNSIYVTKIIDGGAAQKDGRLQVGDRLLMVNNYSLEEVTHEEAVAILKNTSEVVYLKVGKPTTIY
Sequence of LAP2, Q96RT1 (Q96RT1 other isoform, or with tags, fused parts or gaps): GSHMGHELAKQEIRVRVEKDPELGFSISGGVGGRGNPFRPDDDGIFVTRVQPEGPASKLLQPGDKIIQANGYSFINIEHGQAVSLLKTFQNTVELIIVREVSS
Sequence of LNX1_3, Q8TBB1 (Q8TBB1 500-596): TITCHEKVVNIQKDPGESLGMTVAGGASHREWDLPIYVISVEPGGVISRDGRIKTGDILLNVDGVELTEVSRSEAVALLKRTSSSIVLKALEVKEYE
Sequence of ARHGEF12, Q9NZN5-2 (Q9NZN5 other isoform, or with tags, fused parts or gaps): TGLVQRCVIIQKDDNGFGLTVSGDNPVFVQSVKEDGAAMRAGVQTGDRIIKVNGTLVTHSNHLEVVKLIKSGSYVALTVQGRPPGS
Sequence of GRIP2_7, Q9C0E4 (Q9C0E4 934-1023): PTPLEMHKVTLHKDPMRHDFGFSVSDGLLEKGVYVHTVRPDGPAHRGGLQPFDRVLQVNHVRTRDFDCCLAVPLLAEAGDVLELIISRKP
Sequence of AHNAK1, Q09666 (Q09666 4-100): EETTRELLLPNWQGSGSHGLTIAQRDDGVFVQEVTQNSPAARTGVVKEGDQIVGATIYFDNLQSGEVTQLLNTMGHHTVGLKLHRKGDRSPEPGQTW
Sequence of LDB3, O75112 (O75112 1-94): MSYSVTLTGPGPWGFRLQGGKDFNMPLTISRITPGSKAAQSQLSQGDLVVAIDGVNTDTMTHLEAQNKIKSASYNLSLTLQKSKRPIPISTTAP
Sequence of FRMPD3, Q5JV73 (Q5JV73 12-100): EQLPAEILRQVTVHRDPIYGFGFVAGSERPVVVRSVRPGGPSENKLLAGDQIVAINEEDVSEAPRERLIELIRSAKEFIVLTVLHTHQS
Sequence of DLG4_3, P78352 (P78352 306-403): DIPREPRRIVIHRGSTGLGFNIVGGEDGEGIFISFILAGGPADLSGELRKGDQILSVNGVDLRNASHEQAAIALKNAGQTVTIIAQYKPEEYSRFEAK
Sequence of Inadl_5, Q8NI35 (Q8NI35 673-780): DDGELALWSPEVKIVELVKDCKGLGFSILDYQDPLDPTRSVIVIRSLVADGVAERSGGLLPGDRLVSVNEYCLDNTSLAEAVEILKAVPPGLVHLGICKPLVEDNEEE
Sequence of Inadl_10, Q8NI35 (Q8NI35 1673-1763): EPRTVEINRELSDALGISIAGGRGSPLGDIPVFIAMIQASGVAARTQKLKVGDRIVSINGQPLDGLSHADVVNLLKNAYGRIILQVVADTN
Sequence of HTRA1, Q92743 (Q92743 360-477): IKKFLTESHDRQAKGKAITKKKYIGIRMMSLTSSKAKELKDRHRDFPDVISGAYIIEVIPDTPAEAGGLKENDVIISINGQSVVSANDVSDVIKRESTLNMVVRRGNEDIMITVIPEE
Sequence of MAGI2_3, Q86UL8 (Q86UL8 600-682): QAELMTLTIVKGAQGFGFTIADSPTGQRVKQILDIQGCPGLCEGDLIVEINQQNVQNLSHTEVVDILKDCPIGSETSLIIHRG
Sequence of MAGI2_4, Q86UL8 (Q86UL8 772-865): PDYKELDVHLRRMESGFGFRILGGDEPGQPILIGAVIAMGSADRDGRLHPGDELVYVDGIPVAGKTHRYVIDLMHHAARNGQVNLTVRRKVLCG
Sequence of DLG4_2, P78352 (P78352 155-259): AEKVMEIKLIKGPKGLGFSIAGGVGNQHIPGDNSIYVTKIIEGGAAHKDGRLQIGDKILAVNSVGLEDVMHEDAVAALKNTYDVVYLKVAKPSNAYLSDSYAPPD

## REVVMRVTTV [MARCHF9, Q86YJ5]
AHNAK1, Q09666
  pKd: below the threshold
APBA2_2, Q99767
  pKd: below the threshold
APBA3_1, O96018
  pKd: below the threshold
ARHGEF12, Q9NZN5-2
  pKd: 4.8
DLG1_1, Q12959
  pKd: 5.24
DLG2_2, Q15700
  pKd: 5.2
DLG4_2, P78352
  pKd: 5.27
DLG4_3, P78352
  pKd: 4.81
FRMPD3, Q5JV73
  pKd: below the threshold
GRIP1_4, Q9Y3R0
  pKd: below the threshold
GRIP2_7, Q9C0E4
  pKd: below the threshold
HTRA1, Q92743
  pKd: 4.83
HTRA3, P83110
  pKd: 3.64
IL16_1, Q14005
  pKd: 4.17
IL16_4, Q14005
  pKd: 3.53
Inadl_10, Q8NI35
  pKd: 3.6
Inadl_5, Q8NI35
  pKd: below the threshold
LAP2, Q96RT1
  pKd: 3.87
LDB3, O75112
  pKd: below the threshold
LIN7B, Q9HAP6
  pKd: 4.16
LIN7C, Q9NUP9
  pKd: 4.47
LNX1_3, Q8TBB1
  pKd: below the threshold
MAGI2_3, Q86UL8
  pKd: 4.6
MAGI2_4, Q86UL8
  pKd: 4.77
MPDZ_5, O75970
  pKd: below the threshold
NHERF3_3, Q5T2W1
  pKd: below the threshold
PDLIM1, O00151
  pKd: below the threshold
PDZD7_3, Q9H5P4
  pKd: 5.24
PDZRN4_1, Q6ZMN7
  pKd: 3.86

## QELLEYETTV [XKR7, Q5GH72]
AHNAK1, Q09666
  pKd: below the threshold
APBA2_2, Q99767
  pKd: below the threshold
APBA3_1, O96018
  pKd: below the threshold
ARHGEF12, Q9NZN5-2
  pKd: 4.02
DLG1_1, Q12959
  pKd: 4.96
DLG2_2, Q15700
  pKd: 4.84
DLG4_2, P78352
  pKd: 4.91
DLG4_3, P78352
  pKd: below the threshold
FRMPD3, Q5JV73
  pKd: below the threshold
GRIP1_4, Q9Y3R0
  pKd: below the threshold
GRIP2_7, Q9C0E4
  pKd: below the threshold
HTRA1, Q92743
  pKd: 4.69
HTRA3, P83110
  pKd: below the threshold
IL16_1, Q14005
  pKd: 4.12
IL16_4, Q14005
  pKd: below the threshold
Inadl_10, Q8NI35
  pKd: below the threshold
Inadl_5, Q8NI35
  pKd: 3.55
LAP2, Q96RT1
  pKd: 4.56
LDB3, O75112
  pKd: below the threshold
LIN7B, Q9HAP6
  pKd: 4.5
LIN7C, Q9NUP9
  pKd: 4.79
LNX1_3, Q8TBB1
  pKd: below the threshold
MAGI2_3, Q86UL8
  pKd: below the threshold
MAGI2_4, Q86UL8
  pKd: 4.26
MPDZ_5, O75970
  pKd: below the threshold
NHERF3_3, Q5T2W1
  pKd: below the threshold
PDLIM1, O00151
  pKd: below the threshold
PDZD7_3, Q9H5P4
  pKd: 4.85
PDZRN4_1, Q6ZMN7
  pKd: 4.55

## WRSKRTDTLL [RAMP3, O60896]
AHNAK1, Q09666
  pKd: below the threshold
APBA2_2, Q99767
  pKd: below the threshold
APBA3_1, O96018
  pKd: below the threshold
ARHGEF12, Q9NZN5-2
  pKd: 4.03
DLG1_1, Q12959
  pKd: 3.84
DLG2_2, Q15700
  pKd: 3.51
DLG4_2, P78352
  pKd: 3.98
DLG4_3, P78352
  pKd: below the threshold
FRMPD3, Q5JV73
  pKd: below the threshold
GRIP1_4, Q9Y3R0
  pKd: below the threshold
GRIP2_7, Q9C0E4
  pKd: below the threshold
HTRA1, Q92743
  pKd: 4.26
HTRA3, P83110
  pKd: below the threshold
IL16_1, Q14005
  pKd: below the threshold
IL16_4, Q14005
  pKd: below the threshold
Inadl_10, Q8NI35
  pKd: below the threshold
Inadl_5, Q8NI35
  pKd: below the threshold
LAP2, Q96RT1
  pKd: below the threshold
LDB3, O75112
  pKd: below the threshold
LIN7B, Q9HAP6
  pKd: below the threshold
LIN7C, Q9NUP9
  pKd: below the threshold
LNX1_3, Q8TBB1
  pKd: below the threshold
MAGI2_3, Q86UL8
  pKd: below the threshold
MAGI2_4, Q86UL8
  pKd: 3.91
MPDZ_5, O75970
  pKd: below the threshold
NHERF3_3, Q5T2W1
  pKd: 3.48
PDLIM1, O00151
  pKd: below the threshold
PDZD7_3, Q9H5P4
  pKd: 3.99
PDZRN4_1, Q6ZMN7
  pKd: 3.75
